Measurements taken from PMC8719716.

How the values were obtained:
[1] = molecular target: Plk1 PB1 and PB2 domains (UniProt P70032); experiment: reciprocal co-IP of tagged proteins, embryo lysates; settings: reference: wild type CEP97; sites S634,S643,S649,S653
[2] = molecular target: Plk1 (UniProt P70032); experiment: as above; settings: reference: wild type CEP97; sites S634,S643,S649,S653

Substance: CEP97 (from UniProt Q6GPJ8) CEP97 SA (S634A, S643A, S649A, S653A)
- binding against the reference [1]: lost
- binding against the reference [2]: weaker
